The values below come from patent US20220031745A1.

Holding throughout (assay): quantitative flow cytometry, anti-myc staining of CD8+ T cells; ABC = number of receptors/cell; UnT T cells read ~350
The target in assay [1] is low affinity anti-Her2 CAR (4D5 variant LOW scFv, CD8 transmembrane, 41BB, CD3zeta) (UniProt P01732).
For assay [2], the target named is low affinity anti-Her2 SynNotch receptor (4D5 variant LOW scFv, mouse Notch1 minimal regulatory region, Gal4 DBD VP64) (mouse) (UniProt Q01705).
The target in assay [3] is high affinity anti-Her2 CAR (4D5 variant HIGH scFv, CD8 transmembrane, 41BB, CD3zeta) (UniProt P01732).

As for Anti-myc Alexa-647 (antibody), the ABC (antibody binding capacity) was 7600 in assay [1], 2550 in assay [2] and 19000 in assay [3].
